The values below come from the supplement of paper PMC7125110.

± gives the standard error. For some assays here: Fewer inactive variants are shown than the library holds. Some results are limits rather than exact numbers.

First the molecules themselves.
B1: glmS ribozyme (parent)
chain: AUAAAAGCGCCAGAACUACAGAAAUGUAGUUGACGAGGAGGAGGUUUAUCGAAUUUUCGGCGGAUGCCUCCAAA

What all share (details): with glucosamine-6-phosphate
In data set [1] the parent is B1. The data set can be described thus: kcat; higher = faster cleavage; RNA array. A digest of the protocol:
(§1)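 Barcoded ribozyme variants were transcribed in situ on sequenced MiSeq chips by E. coli RNA polymerase. At 37 °C, a hybridised Cy3 probe tracked them while glucosamine-6-phosphate (40 μM to 10 mM) in HEPES/KCl/Mg(OAc)2 buffer flowed in and tiles were imaged over ~14 h. Per-tile medians of signals normalised to baseline and to non-cleaving reference variants were fit to one- or two-exponential decays, giving kobs. kcat and KM came from weighted Michaelis–Menten fits across concentrations.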

The variants in data set [2] derive from B1. Briefly: self-cleavage kobs at 160 uM GlcN6P; higher = faster cleavage; RNA array. In outline: as §1
Data set [3] covers variants of B1. The data set can be described thus: KM; higher = weaker cofactor use; RNA array. A digest of the protocol: as §1
Variants of B1 are the subject of data set [4]. The data set can be described thus: self-cleavage kobs at 40 uM GlcN6P; higher = faster cleavage; RNA array. A digest of the protocol:
as §1

In data set [5] the parent is B1. Briefly: self-cleavage kobs at 640 uM GlcN6P; higher = faster cleavage; RNA array. A digest of the protocol:
as §1

Data set [6] covers variants of B1. Briefly: self-cleavage kobs at 2500 uM GlcN6P; higher = faster cleavage; RNA array. A digest of the protocol: as §1
Data set [7] covers variants of B1. The data set can be described thus: self-cleavage kobs at 10000 uM GlcN6P; higher = faster cleavage; RNA array. In outline: as §1

G41U C68U: in the data set with glucosamine-6-phosphate [1], the kcat worked out at 5.17e-05 ± 8.8e-06 s⁻¹. Further, the “self-cleavage kobs at 160 uM GlcN6P” value in the data set with glucosamine-6-phosphate [2] is under 1e-05 s⁻¹.
Take G44U C67G: the turnover number (kcat) with glucosamine-6-phosphate [1] was found to be 0.0189 ± 0.0043 s⁻¹. Moreover, in the data set with glucosamine-6-phosphate [3], the KM came out at 1120 ± 340 µM. Further, in the data set with glucosamine-6-phosphate [4], the “self-cleavage kobs at 40 uM GlcN6P” value amounted to 0.00061 ± 6.9e-05 s⁻¹. For the same variant, the “self-cleavage kobs at 160 uM GlcN6P” value with glucosamine-6-phosphate [2] stood at 0.00226 ± 0.0003 s⁻¹. In addition, the “self-cleavage kobs at 640 uM GlcN6P” value with glucosamine-6-phosphate [5] came to 0.00865 ± 0.0011 s⁻¹. Also, in the data set with glucosamine-6-phosphate [6], the “self-cleavage kobs at 2500 uM GlcN6P” value worked out at 0.023 ± 0.0048 s⁻¹. For the same variant, in the data set with glucosamine-6-phosphate [7], the “self-cleavage kobs at 10000 uM GlcN6P” value worked out at 0.0148 ± 0.0022 s⁻¹.
On to U31G A52U, for which, in the data set with glucosamine-6-phosphate [1], the kcat amounted to 8.72e-05 ± 5.4e-06 s⁻¹. Also, in the data set with glucosamine-6-phosphate [3], the KM was found to be 1520 ± 320 µM. In the data set with glucosamine-6-phosphate [4], the “self-cleavage kobs at 40 uM GlcN6P” value is under 1e-05 s⁻¹. The “self-cleavage kobs at 2500 uM GlcN6P” value with glucosamine-6-phosphate [6] stood at 5.7e-05 ± 9.5e-06 s⁻¹. The “self-cleavage kobs at 10000 uM GlcN6P” value with glucosamine-6-phosphate [7] worked out at 7.41e-05 ± 1.1e-05 s⁻¹.
As to A52U U69G, the kcat in the data set with glucosamine-6-phosphate [1] turned out to be 2.57e-05 ± 7.6e-06 s⁻¹. Also, the “self-cleavage kobs at 160 uM GlcN6P” value with glucosamine-6-phosphate [2] is 4.23e-05 ± 1.1e-05 s⁻¹. For the same variant, the “self-cleavage kobs at 640 uM GlcN6P” value with glucosamine-6-phosphate [5] was determined as 3.97e-05 ± 1e-05 s⁻¹. Moreover, the “self-cleavage kobs at 2500 uM GlcN6P” value in the data set with glucosamine-6-phosphate [6] turned out to be 2.11e-05 ± 7.8e-06 s⁻¹.
Consider U30G G41C, for which the kcat with glucosamine-6-phosphate [1] was found to be 0.00013 ± 5.4e-06 s⁻¹. In addition, the KM with glucosamine-6-phosphate [3] is 2760 ± 240 µM. Also, in the data set with glucosamine-6-phosphate [6], the “self-cleavage kobs at 2500 uM GlcN6P” value is 6.27e-05 ± 1.2e-05 s⁻¹. For the same variant, in the data set with glucosamine-6-phosphate [7], the “self-cleavage kobs at 10000 uM GlcN6P” value turned out to be 0.000101 ± 2.7e-05 s⁻¹.
Turning to G32U A36C, the kcat with glucosamine-6-phosphate [1] is under 1e-05 s⁻¹. In addition, the “self-cleavage kobs at 2500 uM GlcN6P” value with glucosamine-6-phosphate [6] is under 1e-05 s⁻¹. The “self-cleavage kobs at 10000 uM GlcN6P” value with glucosamine-6-phosphate [7] was under 1e-05 s⁻¹.
On to U46C U54C, for which the kcat in the data set with glucosamine-6-phosphate [1] was 0.00487 ± 0.00041 s⁻¹. Besides, the KM with glucosamine-6-phosphate [3] was determined as 1870 ± 220 µM. For the same variant, in the data set with glucosamine-6-phosphate [4], the “self-cleavage kobs at 40 uM GlcN6P” value was determined as 0.000109 ± 2e-05 s⁻¹. The “self-cleavage kobs at 160 uM GlcN6P” value with glucosamine-6-phosphate [2] is 0.000406 ± 8.6e-05 s⁻¹. Moreover, the “self-cleavage kobs at 640 uM GlcN6P” value in the data set with glucosamine-6-phosphate [5] is 0.00119 ± 0.00012 s⁻¹. Besides, the “self-cleavage kobs at 2500 uM GlcN6P” value with glucosamine-6-phosphate [6] is 0.0028 ± 0.00042 s⁻¹. Besides, in the data set with glucosamine-6-phosphate [7], the “self-cleavage kobs at 10000 uM GlcN6P” value was found to be 0.00438 ± 0.0011 s⁻¹.
Regarding A15U C16A, the kcat with glucosamine-6-phosphate [1] worked out at 0.00121 ± 9.4e-05 s⁻¹. Also, in the data set with glucosamine-6-phosphate [3], the KM was 2740 ± 310 µM. The “self-cleavage kobs at 160 uM GlcN6P” value with glucosamine-6-phosphate [2] came to 6.19e-05 ± 8.7e-06 s⁻¹. In addition, in the data set with glucosamine-6-phosphate [5], the “self-cleavage kobs at 640 uM GlcN6P” value worked out at 0.000244 ± 2.2e-05 s⁻¹. For the same variant, the “self-cleavage kobs at 2500 uM GlcN6P” value with glucosamine-6-phosphate [6] was determined as 0.000544 ± 7e-05 s⁻¹. Moreover, the “self-cleavage kobs at 10000 uM GlcN6P” value with glucosamine-6-phosphate [7] was found to be 0.000959 ± 9.8e-05 s⁻¹.
On to G41C U65A, for which the kcat with glucosamine-6-phosphate [1] came out at 7.02e-05 ± 4.5e-06 s⁻¹. Besides, the KM with glucosamine-6-phosphate [3] came out at 1620 ± 350 µM. In addition, the “self-cleavage kobs at 40 uM GlcN6P” value with glucosamine-6-phosphate [4] is under 1e-05 s⁻¹. For the same variant, the “self-cleavage kobs at 2500 uM GlcN6P” value with glucosamine-6-phosphate [6] was 4.49e-05 ± 1e-05 s⁻¹. In addition, the “self-cleavage kobs at 10000 uM GlcN6P” value with glucosamine-6-phosphate [7] is 5.94e-05 ± 1.1e-05 s⁻¹.
In the case of C11U A39G, the kcat with glucosamine-6-phosphate [1] worked out at 0.00395 ± 0.00067 s⁻¹. Further, the KM with glucosamine-6-phosphate [3] stood at 1780 ± 480 µM. Also, the “self-cleavage kobs at 40 uM GlcN6P” value with glucosamine-6-phosphate [4] worked out at 7.9e-05 ± 1.3e-05 s⁻¹. For the same variant, the “self-cleavage kobs at 160 uM GlcN6P” value in the data set with glucosamine-6-phosphate [2] was 0.00047 ± 9.6e-05 s⁻¹. In addition, the “self-cleavage kobs at 640 uM GlcN6P” value with glucosamine-6-phosphate [5] stood at 0.00116 ± 0.00026 s⁻¹. Also, in the data set with glucosamine-6-phosphate [6], the “self-cleavage kobs at 2500 uM GlcN6P” value came out at 0.00192 ± 0.00036 s⁻¹. For the same variant, the “self-cleavage kobs at 10000 uM GlcN6P” value in the data set with glucosamine-6-phosphate [7] is 0.00358 ± 0.00044 s⁻¹.
For the variant G13A U69C, the kcat with glucosamine-6-phosphate [1] was determined as 0.000255 ± 8.6e-05 s⁻¹. Also, the “self-cleavage kobs at 2500 uM GlcN6P” value in the data set with glucosamine-6-phosphate [6] was 0.000132 ± 2.8e-05 s⁻¹. Besides, the “self-cleavage kobs at 10000 uM GlcN6P” value in the data set with glucosamine-6-phosphate [7] was 0.000179 ± 4.5e-05 s⁻¹.
Regarding C16U G38U C71U, the kcat with glucosamine-6-phosphate [1] came out at 1.14e-05 ± 2e-06 s⁻¹.
Consider U47A G59U, for which the kcat in the data set with glucosamine-6-phosphate [1] came out at 5.89e-05 ± 1.5e-06 s⁻¹.
Turning to U69A C71U, the kcat in the data set with glucosamine-6-phosphate [1] turned out to be 7.42e-05 ± 1.9e-05 s⁻¹. The “self-cleavage kobs at 160 uM GlcN6P” value with glucosamine-6-phosphate [2] came to 3.69e-05 ± 1.3e-05 s⁻¹. Moreover, the “self-cleavage kobs at 640 uM GlcN6P” value with glucosamine-6-phosphate [5] was determined as 9.28e-05 ± 1.6e-05 s⁻¹. Also, the “self-cleavage kobs at 2500 uM GlcN6P” value in the data set with glucosamine-6-phosphate [6] stood at 8.39e-05 ± 1.6e-05 s⁻¹. In addition, the “self-cleavage kobs at 10000 uM GlcN6P” value with glucosamine-6-phosphate [7] stood at 4.27e-05 ± 1.7e-05 s⁻¹.
C16U A42C: the kcat with glucosamine-6-phosphate [1] stood at 1.1e-05 ± 6.5e-07 s⁻¹.
For U31G G66U, the kcat with glucosamine-6-phosphate [1] came to 0.000571 ± 6e-05 s⁻¹. For the same variant, the KM in the data set with glucosamine-6-phosphate [3] is 2410 ± 400 µM. In addition, the “self-cleavage kobs at 160 uM GlcN6P” value in the data set with glucosamine-6-phosphate [2] amounted to 2.77e-05 ± 1e-05 s⁻¹. In addition, the “self-cleavage kobs at 640 uM GlcN6P” value with glucosamine-6-phosphate [5] amounted to 0.000126 ± 1.5e-05 s⁻¹. Also, the “self-cleavage kobs at 2500 uM GlcN6P” value with glucosamine-6-phosphate [6] came out at 0.00029 ± 4.4e-05 s⁻¹. Also, the “self-cleavage kobs at 10000 uM GlcN6P” value in the data set with glucosamine-6-phosphate [7] was found to be 0.000452 ± 8e-05 s⁻¹.
As for U56A C68A, in the data set with glucosamine-6-phosphate [1], the kcat amounted to 4.71e-05 ± 1.1e-05 s⁻¹. Further, the “self-cleavage kobs at 160 uM GlcN6P” value with glucosamine-6-phosphate [2] came out at 5.43e-05 ± 1e-05 s⁻¹. In the data set with glucosamine-6-phosphate [5], the “self-cleavage kobs at 640 uM GlcN6P” value is 5.74e-05 ± 1e-05 s⁻¹. The “self-cleavage kobs at 2500 uM GlcN6P” value with glucosamine-6-phosphate [6] amounted to 5.61e-05 ± 1e-05 s⁻¹.
